Data taken from patent publication US20220010021A1 (Sanofi, published 2022).
Where a chain is given by its changes, count along the chain named. Names and notes keep the numbering of the source. Blank lines part the entries; values can stand above or below the binder they belong to.

Tests used:
[1] = molecular target: T1, human beta-Klotho (KLB) (human, UniProt Q86Z14 53-997); assay: BLI off-rate screen
T1 construct: bought recombinant protein, analyte of the BLI off-rate screen; also called human KLB
T1 sequence (looked up): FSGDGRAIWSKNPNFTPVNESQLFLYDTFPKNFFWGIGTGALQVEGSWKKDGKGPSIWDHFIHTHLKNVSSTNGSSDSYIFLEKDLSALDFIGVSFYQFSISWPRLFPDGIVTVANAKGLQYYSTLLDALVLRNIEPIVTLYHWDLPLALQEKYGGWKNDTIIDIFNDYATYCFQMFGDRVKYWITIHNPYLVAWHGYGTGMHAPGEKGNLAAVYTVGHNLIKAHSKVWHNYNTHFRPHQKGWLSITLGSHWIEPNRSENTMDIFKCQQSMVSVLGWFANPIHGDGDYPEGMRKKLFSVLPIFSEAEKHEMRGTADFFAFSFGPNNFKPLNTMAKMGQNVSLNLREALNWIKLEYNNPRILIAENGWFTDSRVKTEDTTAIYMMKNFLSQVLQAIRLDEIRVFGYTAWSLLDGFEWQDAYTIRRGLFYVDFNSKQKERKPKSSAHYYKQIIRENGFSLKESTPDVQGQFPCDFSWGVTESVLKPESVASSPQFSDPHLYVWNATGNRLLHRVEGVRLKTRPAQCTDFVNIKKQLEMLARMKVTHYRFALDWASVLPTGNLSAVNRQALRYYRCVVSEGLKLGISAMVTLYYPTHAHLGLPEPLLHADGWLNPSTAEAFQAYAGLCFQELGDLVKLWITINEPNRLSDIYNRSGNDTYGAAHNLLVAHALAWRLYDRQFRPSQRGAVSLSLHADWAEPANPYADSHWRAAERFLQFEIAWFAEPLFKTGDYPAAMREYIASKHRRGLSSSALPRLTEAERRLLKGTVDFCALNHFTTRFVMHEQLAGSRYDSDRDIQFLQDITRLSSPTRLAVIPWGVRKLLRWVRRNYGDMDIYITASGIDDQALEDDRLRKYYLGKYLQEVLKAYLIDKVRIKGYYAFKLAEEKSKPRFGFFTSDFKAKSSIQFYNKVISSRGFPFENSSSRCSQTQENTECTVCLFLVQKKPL

[2] = molecular target: cell surface receptor composed of FGFR1c and co-receptor beta-Klotho (KLB) on iLite FGF21 Assay Ready Cells (human, UniProt P11362 22-822; Q86Z14 1-1044); assay: cell-based or functional assay
Chain of cell surface receptor composed of FGFR1c and co-receptor beta-Klotho (KLB) on iLite FGF21 Assay Ready Cells (P11362 22-822, chain 1 of 2): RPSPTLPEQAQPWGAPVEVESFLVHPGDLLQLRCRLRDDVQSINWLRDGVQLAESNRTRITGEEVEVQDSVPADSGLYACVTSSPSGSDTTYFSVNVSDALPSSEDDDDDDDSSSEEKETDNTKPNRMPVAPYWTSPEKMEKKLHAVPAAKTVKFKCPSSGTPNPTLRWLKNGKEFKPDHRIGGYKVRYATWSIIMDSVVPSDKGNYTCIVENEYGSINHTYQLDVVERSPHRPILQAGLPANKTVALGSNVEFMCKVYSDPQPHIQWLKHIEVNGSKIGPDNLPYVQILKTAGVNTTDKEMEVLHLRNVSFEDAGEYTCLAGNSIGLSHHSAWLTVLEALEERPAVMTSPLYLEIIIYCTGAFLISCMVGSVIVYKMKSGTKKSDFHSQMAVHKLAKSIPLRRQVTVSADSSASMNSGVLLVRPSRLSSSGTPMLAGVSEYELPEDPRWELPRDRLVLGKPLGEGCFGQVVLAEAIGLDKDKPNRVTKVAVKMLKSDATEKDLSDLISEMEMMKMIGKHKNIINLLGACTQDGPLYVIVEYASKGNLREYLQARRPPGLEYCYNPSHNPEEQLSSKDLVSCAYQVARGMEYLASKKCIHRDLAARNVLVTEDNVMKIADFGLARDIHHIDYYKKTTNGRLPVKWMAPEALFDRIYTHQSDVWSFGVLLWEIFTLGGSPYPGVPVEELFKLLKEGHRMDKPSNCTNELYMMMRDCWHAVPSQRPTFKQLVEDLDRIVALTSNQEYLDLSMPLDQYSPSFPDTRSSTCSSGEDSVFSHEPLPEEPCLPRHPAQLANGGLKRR
Chain of cell surface receptor composed of FGFR1c and co-receptor beta-Klotho (KLB) on iLite FGF21 Assay Ready Cells (Q86Z14 whole entry, chain 2 of 2): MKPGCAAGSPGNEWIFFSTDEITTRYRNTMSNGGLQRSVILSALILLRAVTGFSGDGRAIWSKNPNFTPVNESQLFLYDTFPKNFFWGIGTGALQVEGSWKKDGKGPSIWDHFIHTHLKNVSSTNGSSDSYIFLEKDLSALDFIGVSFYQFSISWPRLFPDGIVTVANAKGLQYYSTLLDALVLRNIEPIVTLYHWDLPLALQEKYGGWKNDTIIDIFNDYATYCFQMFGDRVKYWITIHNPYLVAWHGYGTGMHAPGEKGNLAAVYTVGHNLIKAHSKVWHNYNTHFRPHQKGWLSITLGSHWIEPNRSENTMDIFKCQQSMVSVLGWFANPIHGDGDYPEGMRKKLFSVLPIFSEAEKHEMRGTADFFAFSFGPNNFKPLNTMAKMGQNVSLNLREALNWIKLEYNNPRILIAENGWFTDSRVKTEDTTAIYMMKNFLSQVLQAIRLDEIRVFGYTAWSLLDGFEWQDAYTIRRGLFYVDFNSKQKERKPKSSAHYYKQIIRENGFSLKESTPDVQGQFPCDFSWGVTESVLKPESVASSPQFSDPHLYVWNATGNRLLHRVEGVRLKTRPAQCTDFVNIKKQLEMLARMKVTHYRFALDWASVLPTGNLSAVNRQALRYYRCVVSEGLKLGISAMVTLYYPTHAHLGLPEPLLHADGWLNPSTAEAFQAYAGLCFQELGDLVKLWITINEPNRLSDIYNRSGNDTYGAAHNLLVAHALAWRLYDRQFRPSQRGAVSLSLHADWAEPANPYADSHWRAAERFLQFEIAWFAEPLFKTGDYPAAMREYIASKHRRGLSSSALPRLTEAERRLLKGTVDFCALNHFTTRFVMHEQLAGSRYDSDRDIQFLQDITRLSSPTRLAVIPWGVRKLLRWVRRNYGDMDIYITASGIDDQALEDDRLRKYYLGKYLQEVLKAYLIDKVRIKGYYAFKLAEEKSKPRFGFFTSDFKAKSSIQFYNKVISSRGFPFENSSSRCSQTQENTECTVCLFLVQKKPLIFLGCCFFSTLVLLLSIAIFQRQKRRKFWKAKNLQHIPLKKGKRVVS

- koff [1]: 9.9e-05 s⁻¹
- Mean E max [2]: 107%
- Mean EC50 [2]: 0.134 nM
B1: 16H7 variant with light chain substitution Q88L (antibody, V domains shown)
VH: not shown
VL: SYVLTQPPSVSVAPGQTARITCGGNNIGSESVHWYQQKPGQAPVLVVYDDSDRPSGIPERFSGSNSGNTATLTISRVEAGDEADYYCLVWDGNSDHVVFGGGTKLTVLG

- koff [1]: 9.9e-05 s⁻¹
- Mean E max [2]: 90%
- Mean EC50 [2]: 0.104 nM
B2: 16H7 variant with light chain substitution Q88M (antibody, V domains shown)
VH: not shown
VL: B1 VL with L88M
